# From patent publication US20240209089A1 (SUZHOU SMARTNUCLIDE BIOPHARMACEUTICAL, published 2024)
# Changes are numbered by the printed parent chain.
# B1: phage clone No. 20 (C20) (VHH)
# VHH: QVQLVESGGGLVQPGGSLRLSCAASGSIFSINTMGWYRQAPGKQRELVATMHSTGSTNYADSVKGRFTISRDNAKKTVYLQMNSLEPDDTAVYYCHVDDTGWGTVDSWGQGTQVTVS
# B2: phage clone No. 70 (S22) (VHH)
# VHH: QLQLVESGGGLVQPGGSLRLSCAASGSIFSINTMGWYRQAPGKQRELVATMHSTGSTNYADSVKGRFTISRDNAKKTVYLQMNSLKPDDTAVYYCHVDDMGWGTVDSWGQGTQVTVSS
# B3: phage clone No. 24 (C24) (VHH)
# VHH: B2 VHH with L2V, S27P, M100T, T112I
# B4: phage clone No. 27 (C27) (VHH)
# VHH: B2 VHH with A23V, A24V, S30A, T54G, N73A, K75P, D88A, V97A, M100S, T112I
# B5: phage clone No. 30 (C30) (VHH)
# VHH: B2 VHH with L2V, A23V, S30A, T50D, T77K, M100R
# B6: phage clone No. 45 (C45) (VHH)
# VHH: B2 VHH with L2V, S27P, A40V, M100T
# B7: phage clone No. 61 (S13) (VHH)
# VHH: B2 VHH with A23V, A24V, S30A, T54Y, D88A, V97A, M100T
# B8: anti-CD8α single domain antibody C20 (VHH, not shown: small tags and cut ends)
# VHH: B1 VHH
# notes: Only the E. coli expression is described for this antibody
# B9: anti-CD8α single domain antibody S22 (VHH, not shown: small tags and cut ends)
# VHH: B2 VHH
# notes: as for B8
# B10: anti-CD8α single domain antibody C30 (VHH, not shown: small tags and cut ends)
# VHH: B2 VHH with L2V, A23V, S30A, T50D, T77K, M100R
# notes: as for B8
# B11: anti-CD8α single domain antibody C45 (VHH, not shown: small tags and cut ends)
# VHH: B2 VHH with L2V, S27P, A40V, M100T
# notes: as for B8
# B12: anti-CD8α single domain antibody S18 (VHH, not shown: small tags and cut ends)
# VHH: QLQLVESGGGLVQPGGSLRLSCAASGSIFSINTMGWYRQAPGKQRELVATMTSHGSTNYADSVKGRFTISRDNSKNTVYLQMNSLKLQDTAVYYCNANDMGWGTVDAWGQGTLVTVSS
# notes: as for B8
# B13: anti-CD8α single domain antibody S6 (VHH, not shown: small tags and cut ends)
# VHH: QVQLVESGGGLVQPGGSLRLSCAVSGTIFSINTMGWYRQVPGKQRELVATITSSGSTKYADSVKGRFTVSRDNAKRTVFLQMDSLKPEDTAVYYCHANDVGWGTVNAWGQGTLVTVSS
# notes: as for B8
# B14: anti-CD8α single domain antibody S7 (VHH, not shown: small tags and cut ends)
# VHH: QLQLVESGGGLVQPGGSLRLSCAASGSIFSINGMGWYRQAPGKQREAVAVITSGGKIDYLDSVKGRFTISRDSAKNTVALQMNSLKPEDTAVYYCNAYGDVRRGEVRWGQGTQVTVSS
# notes: as for B8
# B15: anti-CD8α single domain antibody S23 (VHH, not shown: small tags and cut ends)
# VHH: B14 VHH with L2V, A47L, V50A, I57T, R102Q
# notes: as for B8
# B16: anti-CD8α single domain antibody S32 (VHH, not shown: small tags and cut ends)
# VHH: B2 VHH
# notes: as for B8
# Molecular target: T1, CD8α-Fc fusion protein (human)
# T1 construct: also called CD8 α-Fc protein; CD8α-Fc tag antigen
# Assay: phage ELISA on coated CD8α-Fc
# Experimental: After 3-4 rounds of panning, 96 clones were randomly picked from the plate subjected to the last round of panning for identification. 96 single colonies were randomly picked and respectively cultured to produce and purify phages. The plate was coated with CD8α-Fc fusion protein at 4° C. overnight, then blocked with 3% BSA, and reacted for 1 hour at 37° C. Subsequently, the phage supernatant obtained after infection was added into each well (the control group was blank phage), and incubated for 1 hour at 37° C. After PBST washing, horseradish peroxidase labeled anti-M13 secondary antibody (purchased from Beijing Yiqiao Shenzhou Biotechnology Co., Ltd.) was added, and reacted for 1 hour at room temperature. After washing, a tetramethylbenzidine (TMB) chromogenic solution was added and an absorption value at 450 nm was read. Meanwhile, the plate was coated with an Fc protein at 4° C. overnight, blocked with 3% BSA, and reacted for 1 hour at 37° C. After washing, the phage supernatant obtained after infection (the control group was blank phage) was added to react for 1 hour at 37° C. After washing, the horseradish peroxide labeled anti-M13 secondary antibody (purchased from Beijing Yiqiao Shenzhou Biotechnology Co., Ltd.) was added to react for 1 hour at room temperature. After that, a TMB chromogenic solution was added and an absorption value at 450 nm was read. Where, when a ratio obtained by an OD value being divided by an OD value of blank control was >=4, it was judged that a candidate antibody could bind the CD8α-Fc protein; meanwhile, a ratio obtained by the CD8α-Fc binding OD value of the above antibody capable of binding the CD8 α-Fc antigen protein being divided by the Fc protein binding OD value was >=5, it was considered that the candidate antibody could specifically bind the CD8α part rather than the Fc part. […] The bacteria in candidate clone well were transferred to an LB liquid culture medium containing 100 μg/mL ampicillin so as to perform plasmid extraction and sequencing.
# T1 sequence (chain, as listed by the source): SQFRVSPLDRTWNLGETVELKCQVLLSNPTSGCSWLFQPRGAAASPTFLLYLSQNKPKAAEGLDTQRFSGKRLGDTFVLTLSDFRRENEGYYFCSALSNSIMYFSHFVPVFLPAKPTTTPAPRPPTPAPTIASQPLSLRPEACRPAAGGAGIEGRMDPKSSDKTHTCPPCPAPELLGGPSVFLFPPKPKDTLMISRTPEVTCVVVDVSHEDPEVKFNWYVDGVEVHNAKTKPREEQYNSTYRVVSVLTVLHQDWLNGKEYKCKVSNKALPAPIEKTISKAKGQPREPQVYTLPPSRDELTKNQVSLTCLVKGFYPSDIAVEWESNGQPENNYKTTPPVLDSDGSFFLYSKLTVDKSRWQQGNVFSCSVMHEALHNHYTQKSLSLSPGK
row,Binder,OD450
1,B1,3.19
2,B2,1.73
3,B3,2.35
4,B4,2.74
5,B5,2.03
6,B6,2.42
7,B7,1.71

# Molecular target: T2, human CD8α full-length protein (human, UniProt P01732 22-235)
# T2 construct: whole, on cells; The same entry is used for MC38-CD8α transfectants and for human CD8+ T cells from peripheral blood; the assay field says which cells; also called cell surface CD8α; MC38-CD8α cells
# Assay: flow cytometry on MC38-CD8α cells, secondary antibody-PE
# Experimental: Mouse colon cancer MC38 cell lines stable transfected with human CD8α full-length protein gene were constructed to obtain MC38 cells (MC38-CD8α cells) stably expressing human CD8α proteins on the cell membrane. Prior to use, the cells were cultured to >90% convergence. The anti-CD8α single domain antibody was used to perform flow cytometry on these cells for quantitative analysis of indirect immunofluorescence staining so as to determine the quantity of receptors on surface of each cell.
# The cells were collected and suspended to a concentration of 2.5×10⁶ cells/mL. 200 μL of cell aliquot samples were mixed with 20 μL of primary antibody, and the obtained mixture was incubated for 30 min on ice. The cells were centrifuged, washed and re-suspended, then 5 μL of secondary antibody-PE conjugate was added, and then the above mixture was incubated for 30 minutes on ice. The cells were washed twice, re-suspended and underwent flow cytometry on BD FACSCelesta™. For each tube, at least 5×10⁴ events were collected. All the analyses were single colors, and PE was detected in […].
# T2 sequence (P01732 22-235): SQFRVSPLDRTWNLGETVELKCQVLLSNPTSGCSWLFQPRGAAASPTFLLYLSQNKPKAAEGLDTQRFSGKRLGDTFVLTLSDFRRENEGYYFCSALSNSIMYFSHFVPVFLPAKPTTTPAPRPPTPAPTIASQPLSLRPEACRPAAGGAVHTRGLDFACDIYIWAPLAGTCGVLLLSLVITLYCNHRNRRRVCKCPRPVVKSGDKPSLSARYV
row,Binder,Positive rate (%)
1,B8,98.9%
2,B9,97%
3,B10,98.8%
4,B11,99.1%
5,B12,99.2%
6,B13,97.5%
7,B14,99.3%
8,B15,99.3%
9,B16,99.1%
